From the supplement of paper PMC11246515
± gives the standard deviation of the averaged measurements.

Assay: total protein half-life in vivo (active degradation + dilution); higher = more stable protein
[1] = E. coli NCM3722 delta-clpP delta-lon delta-hslV, growth: N-lim chemostat, doubling time 6 h
[2] = E. coli NCM3722 delta-clpP, growth: N-lim chemostat, doubling time 6 h
[3] = E. coli NCM3722 delta-hslV, growth: N-lim chemostat, doubling time 6 h
[4] = E. coli NCM3722 delta-lon, growth: N-lim chemostat, doubling time 6 h
[5] = E. coli NCM3722 delta-smpB, growth: N-lim chemostat, doubling time 6 h
[6] = wild type E. coli NCM3722, growth: C-lim chemostat, doubling time 3 h
[7] = wild type E. coli NCM3722, growth: C-lim chemostat, doubling time 6 h
[8] = wild type E. coli NCM3722, growth: C-lim chemostat, doubling time 12 h
[9] = wild type E. coli NCM3722, growth: N-lim chemostat, doubling time 6 h
[10] = wild type E. coli NCM3722, growth: N-lim chemostat, doubling time 12 h
[11] = wild type E. coli NCM3722, growth: P-lim chemostat, doubling time 6 h
[12] = wild type E. coli NCM3722, growth: P-lim chemostat, doubling time 12 h

| Sequence | total protein half-life in vivo [1] [h] | total protein half-life in vivo [2] [h] | total protein half-life in vivo [3] [h] | total protein half-life in vivo [4] [h] | total protein half-life in vivo [5] [h] | total protein half-life in vivo [6] [h] | total protein half-life in vivo [7] [h] | total protein half-life in vivo [8] [h] | total protein half-life in vivo [9] [h] | total protein half-life in vivo [10] [h] | total protein half-life in vivo [11] [h] | total protein half-life in vivo [12] [h] |
| --- | --- | --- | --- | --- | --- | --- | --- | --- | --- | --- | --- | --- |
| MTLSFVTRWRDELPETYTALSPTPLNNARLIWHNTELANTLSIPSSLFKNGAGVWGGEALLPGMSPLAQVYSGHQFGVWAGQLGDGRGILLGEQLLADGTTMDWHLKGAGLTPYSRMGDGRAVLRSTIRESLASEAMHYLGIPTTRALSIVTSDSPVYRETAEPGAMLMRVAPSHLRFGHFEHFYYRRESEKVRQLADFAIRHYWSHLADDEDKYRLWFSDVVARTASLIAQWQTVGFAHGVMNTDNMSLLGLTLDYGPFGFLDDYEPGFICNHSDHQGRYSFDNQPAVALWNLQRLAQTLSPFVAVDALNEALDSYQQVLLTHYGERMRQKLGFMTEQKEDNALLNELFSLMARERSDYTRTFRMLSLTEQHSAASPLRDEFIDRAAFDDWFARYRGRLQQDEVSDSERQQLMQSVNPALVLRNWLAQRAIEAAEKGDMTELHRLHEALRNPFSDRDDDYVSRPPDWGKRLEVSCSS | 4.63 ± 0.32 | 4.26 ± 0.67 | 3.15 ± 0.38 | 3.26 ± 0.13 | 2.8 ± 0.21 | 2.72 ± 0.068 | 4.57 ± 0.15 | 8.02 ± 1.4 | 2.971 ± 0.012 | 4.63 ± 0.64 | 4.72 ± 0.71 | 8.293 ± 0.077 |
| MTLTLNRQLLTSRQILVAFSGGLDSTVLLHQLVQWRTENPGVALRAIHVHHGLSANADAWVTHCENVCQQWQVPLVVERVQLAQEGLGIEAQARQARYQAFARTLLPGEVLVTAQHLDDQCETFLLALKRGSGPAGLSAMAEVSEFAGTRLIRPLLARTRGELVQWARQYDLRWIEDESNQDDSYDRNFLRLRVVPLLQQRWPHFAEATARSAALCAEQESLLDELLADDLAHCQSPQGTLQIVPMLAMSDARRAAIIRRWLAGQNAPMPSRDALVRIWQEVALAREDASPCLRLGAFEIRRYQSQLWWIKSVTGQSENIVPWQTWLQPLELPAGLGSVQLNAGGDIRPPRADEAVSVRFKAPGLLHIVGRNGGRKLKKIWQELGVPPWLRDTTPLLFYGETLIAAAGVFVTQEGVAEGENGVSFVWQKTLS | 5.68 ± 0.23 | 5.01 ± 0.08 | 4.74 ± 0.42 | 4.89 ± 0.25 | 4.44 ± 0.24 | – | 5.78 ± 0.29 | 11 ± 0.83 | 5.27 ± 0.28 | 8.42 ± 0.81 | 6.31 ± 0.15 | 11.6 ± 1 |
| MTLTRREFIKHSGIAAGALVVTSAAPLPAWAEEKGGKILTAGRWGAMNVEVKDGKIVSSTGALAKTIPNSLQSTAADQVHTTARIQHPMVRKSYLDNPLQPAKGRGEDTYVQVSWEQALKLIHEQHDRIRKANGPSAIFAGSYGWRSSGVLHKAQTLLQRYMNLAGGYSGHSGDYSTGAAQVIMPHVVGSVEVYEQQTSWPLILENSQVVVLWGMNPLNTLKIAWSSTDEQGLEYFHQLKKSGKPVIAIDPIRSETIEFFDDNATWIAPNMGTDVALMLGIAHTLMTQGKHDKVFLEKYTTGYPQFEEYLTGKSDNTPKSAVWAAEITGVPEAQIVKLAELMAANRTMLMAGWGIQRQQYGEQKHWMLVTLAAMLGQIGTPGGGFGFSYHYSNGGNPTRVGGVLPEMSAAIAGHASEAADDGGMTAIPVARIVDALENPGGKYQHNGKEQTYPNIKMIWWAGGGNFTHHQDTNRLIKAWQKPEMIVVSECYWTAAAKHADIVLPITTSFERNDLTMTGDYSNQHIVPMKQAVAPQFEARNDFDVFADLAELLKPGGKEIYTEGKDEMAWLKFFYDAAQKGARAQRVTMPMFNAFWQQNKLIEMRHSEKNEQYVRYGDFRADPVKNALGTPSGKIEIYSKTLEKFGYKDCPAHPTWLAPDEWKGTADEKQLQLLTAHPAHRLHSQLNYAELRKKYAIADREPITIHTEDAARFGIANGDLVRVWNKRGQILTGAVVTDGIKKGVVCVHEGAWPDLENGLCKNGSANVLTADIPSSQLANACAGNSALVYIEKYTGNAPKLTAFDQPAVQA | 5.67 ± 0.3 | – | – | 5.13 | – | – | 4.75 ± 0.64 | 11.5 ± 6.1 | – | 8.13 | – | – |
| MTLWINGDWITGQGASRVKRNPVSGEVLWQGNDADAAQVEQACRAARAAFPRWARLSFAERHAVVERFAALLESNKAELTAIIARETGKPRWEAATEVTAMINKIAISIKAYHVRTGEQRSEMPDGAASLRHRPHGVLAVFGPYNFPGHLPNGHIVPALLAGNTIIFKPSELTPWSGEAVMRLWQQAGLPPGVLNLVQGGRETGQALSALEDLDGLLFTGSANTGYQLHRQLSGQPEKILALEMGGNNPLIIDEVADIDAAVHLTIQSAFVTAGQRCTCARRLLLKSGAQGDAFLARLVAVSQRLTPGNWDDEPQPFIGGLISEQAAQQVVTAWQQLEAMGGRPLLAPRLLQAGTSLLTPGIIEMTGVAGVPDEEVFGPLLRVWRYDTFDEAIRMANNTRFGLSCGLVSPEREKFDQLLLEARAGIVNWNKPLTGAASTAPFGGIGASGNHRPSAWYAADYCAWPMASLESDSLTLPATLNPGLDFSDEVVR | 5.21 ± 0.42 | 3.93 ± 0.27 | 3.9 ± 0.23 | 4.05 ± 0.23 | 3.9 ± 0.34 | 3.01 ± 0.28 | 5.5 ± 0.65 | 10.05 ± 0.096 | 3.67 ± 0.23 | 6.26 ± 0.56 | 5.78 ± 0.31 | 12.1 ± 1.7 |
| MTMFQYYKRSRHFVFSAFIAFVFVLLCQNTAFARASSNGDLPTKADLQAQLDSLNKQKDLSAQDKLVQQDLTDTLATLDKIDRIKEETVQLRQKVAEAPEKMRQATAALTALSDVDNDEETRKILSTLSLRQLETRVAQALDDLQNAQNDLASYNSQLVSLQTQPERVQNAMYNASQQLQQIRSRLDGTDVGETALRPSQKVLMQAQQALLNAEIDQQRKSLEGNTVLQDTLQKQRDYVTANSARLEHQLQLLQEAVNSKRLTLTEKTAQEAVSPDEAARIQANPLVKQELEINQQLSQRLITATENGNQLMQQNIKVKNWLERALQSERNIKEQIAVLKGSLLLSRILYQQQQTLPSADELENMTNRIADLRLEQFEVNQQRDALFQSDAFVNKLEEGHTNEVNSEVHDALLQVVDMRRELLDQLNKQLGNQLMMAINLQINQQQLMSVSKNLKSILTQQIFWVNSNRPMDWDWIKAFPQSLKDEFKSMKITVNWQKAWPAVFIAFLAGLPLLLIAGLIHWRLGWLKAYQQKLASAVGSLRNDSQLNTPKAILIDLIRALPVCLIILAVGLILLTMQLNISELLWSFSKKLAIFWLVFGLCWKVLEKNGVAVRHFGMPEQQTSHWRRQIVRISLALLPIHFWSVVAELSPLHLMDDVLGQAMIFFNLLLIAFLVWPMCRESWRDKESHTMRLVTITVLSIIPIALMVLTATGYFYTTLRLAGRWIETVYLVIIWNLLYQTVLRGLSVAARRIAWRRALARRQNLVKEGAEGAEPPEEPTIALEQVNQQTLRITMLLMFALFGVMFWAIWSDLITVFSYLDSITLWHYNGTEAGAAVVKNVTMGSLLFAIIASMVAWALIRNLPGLLEVLVLSRLNMRQGASYAITTILNYIIIAVGAMTVFGSLGVSWDKLQWLAAALSVGLGFGLQEIFGNFVSGLIILFERPVRIGDTVTIGSFSGTVSKIRIRATTITDFDRKEVIIPNKAFVTERLINWSLTDTTTRLVIRLGVAYGSDLEKVRKVLLKAATEHPRVMHEPMPEVFFTAFGASTLDHELRLYVRELRDRSRTVDELNRTIDQLCRENDINIAFNQLEVHLHNEKGDEVTEVKRDYKGDDPTPAVG | 5.8 ± 0.075 | 6.4 ± 0.7 | 5.72 ± 0.36 | 6.99 ± 1.1 | 5.79 ± 0.11 | 3.06 ± 0.094 | 5.56 ± 0.15 | 11.1 ± 2.1 | 6.73 ± 0.33 | 13.1 ± 1.6 | 5.94 ± 0.43 | 11.4 ± 0.85 |
| MTMPTNQCPWRMQVHHITQETPDVWTISLICHDYYPYRAGQYALVSVRNSAETLRAYTISSTPGVSEYITLTVRRIDDGVGSQWLTRDVKRGDYLWLSDAMGEFTCDDKAEDKFLLLAAGCGVTPIMSMRRWLAKNRPQADVRVIYNVRTPQDVIFADEWRNYPVTLVAENNVTEGFIAGRLTRELLAGVPDLASRTVMTCGPAPYMDWVEQEVKALGVTRFFKEKFFTPVAEAATSGLKFTKLQPAREFYAPVGTTLLEALESNNVPVVAACRAGVCGCCKTKVVSGEYTVSSTMTLTDAEIAEGYVLACSCHPQGDLVLA | 3.27 ± 0.63 | – | – | – | – | – | – | – | – | – | – | – |
